According to publication doi:10.1101/2021.03.01.433494 (bioRxiv, 2021):

B1: Ab32 (human monoclonal anti-M protein IgG) (antibody, V domains shown)
VH: EVQLVESGGGLVRPGGSLRLSCVASGFMFNEYYMSWIRQAPGKGLEWISFISNAGTYTNYAESVKGRFTISRDNAKDSLYLEMNSLRGEDTAVYYCARQGFDTRGEDAFEIWGQGTMVTVSS
VL: EIVLTQSPATLSLSPGERATLSCRASQPLSGYLAWYQQKPGQAPRLLIYNASKRATGIPARFTGSGSGTDFTLTISSLESEDFAVYYCQQRSGWPSIFTFGPGTKVDIK
B2: Ab49 (human monoclonal anti-M protein IgG) (antibody, V domains shown)
VH: EVQLVESGGGLVQPGGSLRLSCAASGFTVSINYMSWVRQAPGKGLQWVSVIYSGGSTYYADSVKGRFTISRDNSKNTLYLQMNSLRAEDTAMYYCVRDSRFWGIFDYWGQGTLVTVSS
VL: EIVLTQSPATLSLSPGERATLSCRASQSVSSYLAWYQRKPGQAPRLLIYDASNRATGIPARFSGSGSGTDFTLTISSLEPEDFAVYYCQQRSNWPPTFGQGTKVEIK
B3: Ab49 single Fab (IgdE-cleaved Ab49) (Fab, V domains shown)
VH: B2 VH
VL: B2 VL

Experiments:
[1] = target: T1, M1 protein on the surface of Streptococcus pyogenes strain SF370 (Streptococcus pyogenes SF370 (emm1), UniProt Q99XV0, strain); assay: far-Western, overlay or dot blot
[2] = target: T1, M1 protein on the surface of …; assay: flow cytometry on cells

| Binder | binding result [1] | binding result [2] |
| --- | --- | --- |
| B1 | binds |  |
| B2 |  | binds |
| B3 |  | binds |
